Data: patent US8034786B2, “Methods and means for controlling the endocytosis and subsequent degradation of growth hormone receptor” (Recharge B.V., priority 2005, dated 2011)

How the values were obtained:
[1] = biological target: GHR constructs with one of seven amino acids of the UbE motif (indicated as underlined in …) mutated to alanine; assay: pull-down of 35S-labelled β-TrCP on GH-GHR beads, background (GHR 1-286) subtracted
GHR and β-TrCP = assay: Inhibition of the interaction between GHR and β-TrCP; type: binding

Chain of in vitro-translated- and 35S-labelled-TrCP2 (Q9UKB1 whole entry): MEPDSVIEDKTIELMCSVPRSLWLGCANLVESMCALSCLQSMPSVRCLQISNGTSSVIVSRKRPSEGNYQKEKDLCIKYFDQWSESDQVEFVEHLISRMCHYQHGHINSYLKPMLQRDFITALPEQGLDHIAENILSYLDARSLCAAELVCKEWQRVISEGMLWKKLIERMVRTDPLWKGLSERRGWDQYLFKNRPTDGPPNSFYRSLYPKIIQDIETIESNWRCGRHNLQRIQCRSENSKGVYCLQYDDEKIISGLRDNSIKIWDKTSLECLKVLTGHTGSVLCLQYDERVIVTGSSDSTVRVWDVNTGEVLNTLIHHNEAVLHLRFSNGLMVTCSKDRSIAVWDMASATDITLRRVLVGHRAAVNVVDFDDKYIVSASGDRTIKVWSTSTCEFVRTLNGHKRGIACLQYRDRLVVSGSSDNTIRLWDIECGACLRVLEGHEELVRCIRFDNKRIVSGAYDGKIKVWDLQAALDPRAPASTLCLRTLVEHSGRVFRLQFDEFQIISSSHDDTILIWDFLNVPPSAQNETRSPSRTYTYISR

Row | inhibition of binding as compared to wtGHR [1] [%] | inhibition of F-box protein (β-TrCP) interaction with ubiquitin/proteasome binding site of GHR (GHR and β-TrCP) | Molecule
1 | > 60 | – | in vitro-translated- and 35S-labelled-TrCP2
2 | – | capable of providing inhibition | KQQRIKMLILPPVPVPKIKGIDPDLLKEGKLEEVNTILAIHDSYKPEFHSDDS WVEFIELD (61 amino acid peptide of GHR, residues 270-331) KQQRIKMLILPPVPVPKIKGIDPDLLKEGKLEEVNTILAIHDSYKPEFHSDDSWVEFIELD
